Legend:
[1] = molecular target: T1, human CD4, cell-expressed (human, UniProt P01730 26-458); experiment: cell-based or functional assay
[2] = molecular target: T1, human CD4, cell-expressed; experiment: FACS, Jurkat E6.1 cells (CD4 no or low)
[3] = molecular target: T1, human CD4, cell-expressed; experiment: cell-based or functional assay; remark: listed apart in the source
[4] = molecular target: T1, human CD4, cell-expressed; experiment: FACS, human T cells
[5] = molecular target: T1, human CD4, cell-expressed; experiment: cell-based or functional assay; remark: listed apart in the source
[6] = molecular target: T1, human CD4, cell-expressed; experiment: FACS, MOLM-13 cells
[7] = molecular target: T2, human CXCR4 (on cells, viral lipoparticles or membrane extracts) (human, UniProt P61073 1-352); experiment: ELISA on coated hCXCR4 lipoparticles against null lipoparticles, anti-c-myc detection
T2 construct: whole, on cells; also called hCXCR4 VLPs; CXCR4-lip

[8] = molecular target: T1, human CD4, cell-expressed; experiment: FACS, MOLM-13 cells; remark: listed apart in the source
[9] = molecular target: T1, human CD4, cell-expressed; experiment: FACS, THP-1 cells
[10] = molecular target: T1, human CD4, cell-expressed; experiment: FACS, Jurkat E6-1 cells (CD4 low)
[11] = molecular target: T1, human CD4, cell-expressed; experiment: cell-based or functional assay; remark: listed apart in the source
[12] = molecular target: T3, human IL12Rβ1, cell-expressed (human, UniProt P42701 24-662); experiment: flow cytometry on isolated CD8+ T cells of donor D863, anti-Flag detection
T3 construct: whole, on cells; in the context of the heterodimeric receptor; also called IL12Rb1

[13] = molecular target: T2, human CXCR4 (on cells, viral …); experiment: cell-based or functional assay
[14] = molecular target: T2, human CXCR4 (on cells, viral …); experiment: flow cytometry on THP-1 cells (CD4 and CXCR4), detection via tag
[15] = molecular target: T2, human CXCR4 (on cells, viral …); experiment: flow cytometry on THP-1 cells (CXCR4 and IL-3Ra)
[16] = molecular target: T2, human CXCR4 (on cells, viral …); experiment: cell-based or functional assay; remark: listed apart in the source
[17] = molecular target: T2, human CXCR4 (on cells, viral …); experiment: flow cytometry on U-937 cells (CXCR4, virtually no IL-3Ra)
[18] = molecular target: T2, human CXCR4 (on cells, viral …); experiment: cell-based or functional assay; remark: listed apart in the source
[19] = molecular target: T2, human CXCR4 (on cells, viral …); experiment: flow cytometry on MOLM-13 cells (IL-3Ra higher than CXCR4)
[20] = molecular target: T2, human CXCR4 (on cells, viral …); experiment: cell-based or functional assay; remark: listed apart in the source
[21] = molecular target: T2, human CXCR4 (on cells, viral …); experiment: [125I]-SDF-1 displacement, Hek-CXCR4 membrane extracts
[22] = molecular target: T2, human CXCR4 (on cells, viral …); experiment: FACS, MOLM-13 cells
[23] = molecular target: T2, human CXCR4 (on cells, viral …); experiment: cell-based or functional assay; remark: listed apart in the source
[24] = molecular target: T4, recombinant IL-3Rα ectodomain (human, UniProt P26951 19-305); experiment: ELISA on recombinant IL-3Ra ectodomain (both lower panels)
T4 construct: extracellular domain; also called recombinant IL-3Ra; biotinylated-IL-3Rα ectodomain
T4 sequence (looked up): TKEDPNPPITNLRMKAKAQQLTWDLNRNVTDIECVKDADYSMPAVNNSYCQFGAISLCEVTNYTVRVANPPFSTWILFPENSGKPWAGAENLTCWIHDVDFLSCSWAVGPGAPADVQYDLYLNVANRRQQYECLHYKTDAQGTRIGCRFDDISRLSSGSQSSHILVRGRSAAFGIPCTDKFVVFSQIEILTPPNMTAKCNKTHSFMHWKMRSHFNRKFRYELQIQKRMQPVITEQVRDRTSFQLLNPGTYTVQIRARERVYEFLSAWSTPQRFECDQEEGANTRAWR

[25] = molecular target: T2, human CXCR4 (on cells, viral …); experiment: cell-based or functional assay; remark: listed apart in the source
[26] = molecular target: T2, human CXCR4 (on cells, viral …); experiment: FACS, Jurkat E6-1 cells
[27] = molecular target: T2, human CXCR4 (on cells, viral …); experiment: FACS, Jurkat cells
[28] = molecular target: T5, human IL-23R extracellular domain Fc-fusion (human, UniProt Q5VWK5 24-355); experiment: SPR Biacore T100, captured IL-23R-Fc
T5 construct: extracellular domain; bought; also called IL-23R-Fc
T5 sequence (looked up): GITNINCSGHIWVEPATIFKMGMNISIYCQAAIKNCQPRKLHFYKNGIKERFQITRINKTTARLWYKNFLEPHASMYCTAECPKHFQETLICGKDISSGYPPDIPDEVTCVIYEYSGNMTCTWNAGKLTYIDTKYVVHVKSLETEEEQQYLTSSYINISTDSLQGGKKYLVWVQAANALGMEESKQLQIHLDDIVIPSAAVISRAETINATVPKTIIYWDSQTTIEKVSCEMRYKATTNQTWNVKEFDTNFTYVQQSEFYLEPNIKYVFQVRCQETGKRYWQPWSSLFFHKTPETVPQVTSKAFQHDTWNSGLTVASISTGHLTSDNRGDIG

[29] = molecular target: T5, human IL-23R extracellular domain …; experiment: competition ELISA, coated IL-23 + IL-23R-Fc; IL-23 competition ELISA of Table 3.3
[30] = molecular target: T5, human IL-23R extracellular domain …; experiment: competition ELISA, coated IL-23 + 5 nM IL-23R-Fc
[31] = molecular target: T6, human IL-23R, cell-expressed (human, UniProt Q5VWK5 24-629); experiment: cell-based or functional assay
T6 sequence (looked up): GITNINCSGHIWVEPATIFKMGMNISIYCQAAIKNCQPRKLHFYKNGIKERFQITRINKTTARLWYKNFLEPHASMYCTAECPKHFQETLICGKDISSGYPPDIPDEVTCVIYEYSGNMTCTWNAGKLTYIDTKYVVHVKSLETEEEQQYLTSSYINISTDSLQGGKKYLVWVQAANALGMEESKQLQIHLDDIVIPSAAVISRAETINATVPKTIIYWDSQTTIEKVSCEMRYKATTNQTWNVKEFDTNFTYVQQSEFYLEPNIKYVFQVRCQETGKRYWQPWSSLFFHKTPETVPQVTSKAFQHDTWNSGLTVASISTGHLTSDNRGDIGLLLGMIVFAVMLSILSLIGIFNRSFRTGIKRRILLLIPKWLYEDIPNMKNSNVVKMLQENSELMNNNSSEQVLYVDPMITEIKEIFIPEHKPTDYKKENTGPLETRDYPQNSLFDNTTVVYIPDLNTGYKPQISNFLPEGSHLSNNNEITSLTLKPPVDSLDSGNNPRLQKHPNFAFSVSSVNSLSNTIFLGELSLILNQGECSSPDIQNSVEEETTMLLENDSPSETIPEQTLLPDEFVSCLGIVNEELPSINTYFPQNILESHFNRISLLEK

[32] = molecular target: T6, human IL-23R, cell-expressed; experiment: FACS, Th17-differentiated T cells
[33] = molecular target: T1, human CD4, cell-expressed; experiment: flow cytometry on MOLM-13 cells (CD4, no IL12R or IL23R), upper right panel

T2 sequence (P61073 whole entry): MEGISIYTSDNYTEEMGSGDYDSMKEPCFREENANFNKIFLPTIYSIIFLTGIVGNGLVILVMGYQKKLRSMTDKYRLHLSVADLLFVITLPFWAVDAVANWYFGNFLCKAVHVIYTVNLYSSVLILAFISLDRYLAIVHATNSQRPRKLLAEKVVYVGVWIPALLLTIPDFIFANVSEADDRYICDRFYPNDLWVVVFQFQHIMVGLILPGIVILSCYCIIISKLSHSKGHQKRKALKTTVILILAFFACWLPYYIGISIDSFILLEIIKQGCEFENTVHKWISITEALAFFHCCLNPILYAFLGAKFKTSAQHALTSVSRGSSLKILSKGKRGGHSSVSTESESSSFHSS

B1: 3F11 (VHH)
VHH: EVQLVESGGGSVQPGGSLTLSCGTSGRTFNVMGWFRQAPGKEREFVAAVRWSSTGIYYTQYADSVKSRFTISRDNAKNTVYLEMNSLKPEDTAVYYCAADTYNSNPARWDGYDFRGQGTQVTVSS
notes: also called CD4#8; 03F11
IC50, HIV-1 NL4.3 (X4), MT-4 [1]: 66.7 nM
IC50, HIV-1 NL4.3 (X4), PBMC [1]: 580 nM
IC50, HIV-1 NL4.3 (X4), U87 [1]: > 1330 nM
EC50 [2]: 1.1 nM
IC50, HIV-1 NL4.3 wt, MT-4 [3]: 34.7 nM
IC50, NL4.3 2G12 res., MT-4 [3]: 23.3 nM
IC50, NL4.3 AMD-3100 res., MT-4 [3]: 22.7 nM
IC50, NL4.3 CD4#8 res., MT-4 [3]: > 6700 nM
IC50, NL4.3 CXCL-12res., MT-4 [3]: 153 nM
IC50, NL4.3 CXCR4#2 res, MT-4 [3]: > 6700 nM
EC50 [4]: 0.76 nM
IC50, HIV-1 NL4.3 neutralization, PBMCs [5]: 29.3 nM
EC50 [6]: 0.6 nM
binding result [7]: no binding (tested: 100 nM)
EC50 [8]: 0.7 nM
EC50 [9]: 1 nM
EC50 [10]: 61 nM
IC50, HIV-1 HE, MT-4 [11]: 10 nM
IC50, HIV-1 NL4.3, MT-4 [11]: 34.7 nM
IC50, HIV-2 ROD, MT-4 [11]: 22.7 nM
binding result [12]: no binding (tested: 250 nM)

B2: 281F12 (VHH)
VHH: EVQLVESGGGLVQAGDSLRLSCAASGRAFSRYAMGWFRQAPGKEREFVAAIGWGPSKTNYADSVKGRFTISRDNAKNTVYLQMNTLKPEDTAVYSCAAKFVNTDSTWSRSEMYTYWGQGTLVTVSS
notes: also called CXCR4#2; 4CXCR281F12-FLAG3-HIS6
IC50, SDF-1 chemotaxis, Jurkat E6-1 [13]: 84.2 nM
IC50, SDF-1 chemotaxis, MOLM-13 [13]: 86 nM
EC50 (read off the curve) [14]: ~6 nM
EC50 (read off the curve) [15]: ~20 nM
IC50, HIV-1 BaL (R5), PBMC [16]: > 1670 nM
IC50, HIV-1 NL4.3 (X4), MT-4 [16]: 67.1 nM
IC50, HIV-1 NL4.3 (X4), PBMC [16]: 29.3 nM
IC50, HIV-1 NL4.3 (X4), U87 [16]: > 6670 nM
EC50 (read off the curve) [17]: ~10 nM
IC50, SDF-1 chemotaxis, Jurkat [18]: 68 nM
EC50 (read off the curve) [19]: ~20 nM
IC50, HIV-1 NL4.3 wt, MT-4 [20]: 22.7 nM
IC50, NL4.3 2G12 res., MT-4 [20]: 17.3 nM
IC50, NL4.3 AMD-3100 res., MT-4 [20]: > 1670 nM
IC50, NL4.3 CD4#8 res., MT-4 [20]: 87.3 nM
IC50, NL4.3 CXCL-12res., MT-4 [20]: 220 nM
IC50, NL4.3 CXCR4#2 res, MT-4 [20]: 2330 nM
Ki [21]: 26.9 nM
EC50 [22]: 5.2 nM
IC50, CXCL-12 chemotaxis, Jurkat E6-1 [23]: 96.8 nM
IC50, CXCL-12 chemotaxis, MOLM-13 [23]: 86 nM
binding result [24]: no binding (tested: 1E-6 M)
IC50, HIV-1 HE, MT-4 [25]: 10 nM
IC50, HIV-1 NL4.3, MT-4 [25]: 22.7 nM
IC50, HIV-2 ROD, MT-4 [25]: 86.7 nM
EC50 [26]: 7 nM
EC50 [27]: 7.8 nM

B3: IL23R#19: 150D02 (VHH)
VHH: EVQLVESGGGLVQPGGSLTLSCVASGRTFSTDVMGWFRQAPGKEREFVAAHRTSGISTVYAASVKGRFTISRDNAKNTVYLGMKSLKPEDTAVYVCAAGSDASGGYDYWGQGTLVTVSS
notes: also called LG150D02
Kd [28]: 11 nM
koff [28]: 0.0081 s⁻¹
kon [28]: 730000 M⁻¹ s⁻¹
IC50 [29]: 1.7 nM
IC50 [30]: 4.7 nM
IC50, IL-23 dependent IL-17 release, PBMC D840 [31]: 100 nM
EC50 [32]: 20 nM
binding result [33]: no binding (tested: 1E-6 M)
binding result [12]: no binding (tested: 250 nM)

Reference: patent publication US20160251440A1 (Ablynx, published 2016)
